Laboratory results: US20240382610A1 (TALLAC THERAPEUTICS, published 2024)
Numbering of substitutions follows the chain as printed. Values belong to the binder of their own block, whether it stands above or below them.

Columns and labels:
[1] = target: T1, Human nectin-4 ECD-6His (TNT-175) (human, UniProt Q96NY8 32-349); assay: competition ELISA; nectin-4 ECD premixed with TNT210, captured by the coat antibody; % of signal without premix antibody
T1 construct: the entry holds the extracellular domain with the C-terminal 6His tag
T1 sequence: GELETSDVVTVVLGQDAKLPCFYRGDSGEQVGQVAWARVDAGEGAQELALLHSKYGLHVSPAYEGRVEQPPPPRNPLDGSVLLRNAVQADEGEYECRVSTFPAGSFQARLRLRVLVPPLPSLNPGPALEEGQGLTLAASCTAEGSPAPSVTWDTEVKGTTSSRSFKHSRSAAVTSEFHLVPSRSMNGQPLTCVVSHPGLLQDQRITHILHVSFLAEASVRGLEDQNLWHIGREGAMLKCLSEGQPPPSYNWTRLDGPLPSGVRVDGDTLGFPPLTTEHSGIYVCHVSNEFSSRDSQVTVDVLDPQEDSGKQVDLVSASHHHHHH
In short: (§1)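 Goat anti-mouse IgG was coated at 1 mg/mL in PBS overnight at 4° C. Premixes were applied for an hour, then rabbit anti-6×His HRP (1:4,000) for an hour at room temperature, then ABTS for 20 minutes. O.D. values, background-corrected, were reported relative to nectin-4 alone at its lowest dilution.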

[2] = target: T1, Human nectin-4 ECD-6His (TNT-175); assay: competition ELISA; nectin-4 ECD premixed with TNT207, captured by the coat antibody; % of signal without premix antibody
In short: as §1

[3] = target: T1, Human nectin-4 ECD-6His (TNT-175); assay: competition ELISA; nectin-4 ECD premixed with TNT209, captured by the coat antibody; % of signal without premix antibody
In short: as §1

[4] = target: T1, Human nectin-4 ECD-6His (TNT-175); assay: competition ELISA; nectin-4 ECD premixed with TNT211, captured by the coat antibody; % of signal without premix antibody
In short: as §1

[5] = target: T1, Human nectin-4 ECD-6His (TNT-175); assay: competition ELISA; nectin-4 ECD premixed with TNT208, captured by the coat antibody; % of signal without premix antibody
In short: as §1

[6] = target: T1, Human nectin-4 ECD-6His (TNT-175); assay: competition ELISA; nectin-4 ECD premixed with TNT212, captured by the coat antibody; % of signal without premix antibody
In short: as §1

human nectin-4 on cells = target: T2, human nectin-4 on cells (human, UniProt Q96NY8 32-510); assay: flow cytometry MFI, MNK74 (nectin-4 positive) over AGS (negative)
T2 construct: whole, on cells; also called PVRL4
T2 sequence (looked up): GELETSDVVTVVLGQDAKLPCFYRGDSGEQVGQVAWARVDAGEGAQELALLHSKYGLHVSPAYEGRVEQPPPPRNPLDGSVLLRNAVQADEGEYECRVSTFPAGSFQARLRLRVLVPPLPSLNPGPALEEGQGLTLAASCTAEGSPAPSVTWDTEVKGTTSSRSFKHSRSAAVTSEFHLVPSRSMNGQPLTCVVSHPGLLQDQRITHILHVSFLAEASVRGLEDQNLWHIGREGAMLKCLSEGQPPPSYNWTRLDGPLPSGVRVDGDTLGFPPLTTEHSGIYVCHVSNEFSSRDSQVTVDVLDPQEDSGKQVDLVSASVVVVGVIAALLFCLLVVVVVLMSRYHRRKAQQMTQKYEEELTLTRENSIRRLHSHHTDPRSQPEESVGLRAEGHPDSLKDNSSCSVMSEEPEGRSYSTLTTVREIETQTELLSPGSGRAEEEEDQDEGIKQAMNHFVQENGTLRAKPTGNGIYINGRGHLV

[7] = target: T1, Human nectin-4 ECD-6His (TNT-175); assay: competition ELISA; nectin-4 ECD premixed with TNT203, captured by the coat antibody; % of signal without premix antibody
In short: as §1

[8] = target: T1, Human nectin-4 ECD-6His (TNT-175); assay: competition ELISA; nectin-4 ECD premixed with TNT205, captured by the coat antibody; % of signal without premix antibody
In short: as §1

[9] = target: T1, Human nectin-4 ECD-6His (TNT-175); assay: competition ELISA; nectin-4 ECD premixed with TNT201, captured by the coat antibody; % of signal without premix antibody
In short: as §1

[10] = target: T1, Human nectin-4 ECD-6His (TNT-175); assay: competition ELISA; nectin-4 ECD premixed with TNT206, captured by the coat antibody; % of signal without premix antibody
In short: as §1

[11] = target: T1, Human nectin-4 ECD-6His (TNT-175); assay: competition ELISA; nectin-4 ECD premixed with TNT202, captured by the coat antibody; % of signal without premix antibody
In short: as §1

[12] = target: T1, Human nectin-4 ECD-6His (TNT-175); assay: SPR ProteOn, mAb on protein A
Protocol: Initial testing of binding of nectin-4 antibodies to nectin-4. […] Biotinylated protein A (15 μg/mL) was immobilized to the surface of an NLC chip. 30 nM of purified mAb supernatant was diluted in PBS-T and captured over the protein A surface. Serial dilutions of human nectin-4 were injected over the mAb-coated chips, and binding kinetics were determined. Chips were regenerated using 4:1 v/v of IgG elution butter/4M NaCl.

[13] = target: T1, Human nectin-4 ECD-6His (TNT-175); assay: competition ELISA; nectin-4 ECD premixed with TNT204, captured by the coat antibody; % of signal without premix antibody
In short: as §1

[14] = target: T1, Human nectin-4 ECD-6His (TNT-175); assay: SPR Biacore 8K
Protocol: (§2) Further testing of select nectin-4 antibodies to human, mouse and cyno nectin-4. Additional assessment of the nectin-4 antibodies was performed to measure binding to human, mouse, and cynomolgus nectin-4. Biacore 8K (Cytiva, Marlborough, MA) was used to further characterize binding of four of the nectin-4 monoclonal antibodies.
(§3) All experiments were performed at 25° C. temperature and in HBS-EP+ run buffer (10 mM HEPES, pH 7.4, 150 mM NaCl, 3 mM EDTA, 0.05% Tween-20). The antibodies were captured or immobilized on a Biacore chip either through amine-coupling method on a CM5 or captured by ProteinA chip or captured by anti-mouse polyclonal antibody or anti-human polyclonal antibody. […] The data were processed and analyzed in Biacore Insight Evaluation Software using double-reference subtraction of the data and then fitted to a simple Langmuir binding model using global kinetic rate constants for association (Kₐ), dissociation (Kd), and Rₘₐₓ values per sample. Fit quality was determined by inspection of the residuals and of statistical T values and the equilibrium dissociation (or affinity) constant was deduced by the ratio of the kinetic rate constants. KD=Kd/Kₐ.

[15] = target: T3, Human nectin-4-IgV-6His (TNT-252) (human, UniProt Q96NY8 32-147); assay: SPR Biacore 8K
T3 construct: entry includes the 6His tag
T3 sequence: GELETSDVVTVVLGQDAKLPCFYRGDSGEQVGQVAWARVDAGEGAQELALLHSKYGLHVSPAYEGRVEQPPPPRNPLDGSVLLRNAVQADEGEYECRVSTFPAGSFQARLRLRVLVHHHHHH
Protocol: as §2, §3

[16] = target: T4, Cyno nectin-4 ECD-6His (TNT-255) (cynomolgus, UniProt Q96NY8 32-349 (human entry)); assay: SPR Biacore 8K
T4 construct: entry includes the 6His tag
T4 chain: T1 sequence with V39A, I230V
Protocol: as §2, §3

[17] = target: T1, Human nectin-4 ECD-6His (TNT-175); assay: SPR Biacore 8K, mAb on protein A
Protocol: (§4) The running buffer was 10 mM HEPES, pH 7.4, 150 mM NaCl, 3 mM EDTA, 0.05% (v/v) Surfactant P20 (HBS-EP+). […] The nectin-4 analytes were injected in either single-cycle kinetics or multi-cycle kinetics mode at nominal starting concentrations of 300 nM or 900 nM with 3-fold serial dilutions. Association times were monitored for 120 s, and dissociation times were monitored 1800 s at 30 μL/min flow rate. The surfaces were regenerated with 10 mM glycine at pH1.7 or 75 mM phosphoric acid at pH1.6 for two pulses of 15 s at 30 μL/min flow rate.
(§5) The data were processed and analyzed with Biacore 8K Evaluation Software Version 3.0.12.15655 (Cytiva, Global Life Sciences Solutions USA LLC, Marlborough, MA). […] The responses from the nearest buffer blank injection were then subtracted from the reference subtracted data (2-1) to yield double-referenced data. These double-reference data were fit to a simple 1:1 Langmuir binding model with mass transport to determine the apparent association (ka) and dissociation rate constants (kd). The apparent equilibrium dissociation constant or affinity constant was then calculated based on their ratio as (KD=kd/ka).

[18] = target: T3, Human nectin-4-IgV-6His (TNT-252); assay: SPR Biacore 8K, mAb on protein A
Protocol: as §4, §5

[19] = target: T5, Mouse nectin-4 ECD-6His (TNT-250) (mouse, UniProt Q8R007 31-347); assay: SPR Biacore 8K, mAb on protein A
T5 construct: entry includes the 6His tag; also called mouse nectin-4-LCD
T5 sequence: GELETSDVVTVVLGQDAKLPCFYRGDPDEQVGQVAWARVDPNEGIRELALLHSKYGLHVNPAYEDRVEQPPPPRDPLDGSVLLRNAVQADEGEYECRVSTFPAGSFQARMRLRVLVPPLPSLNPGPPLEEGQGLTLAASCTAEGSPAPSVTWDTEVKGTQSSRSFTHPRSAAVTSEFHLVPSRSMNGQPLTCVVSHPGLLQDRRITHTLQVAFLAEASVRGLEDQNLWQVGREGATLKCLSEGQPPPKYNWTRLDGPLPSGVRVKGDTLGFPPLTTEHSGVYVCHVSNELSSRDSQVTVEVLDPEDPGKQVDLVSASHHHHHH
Protocol: as §4, §5

[20] = target: T4, Cyno nectin-4 ECD-6His (TNT-255); assay: SPR Biacore 8K, mAb on protein A
Protocol: as §4, §5

% of Positive [1]: 2.7%
% of Positive [2]: 2.4%
% of Positive [3]: 26.7%
% of Positive [4]: 27%
% of Positive [5]: 4.3%
% of Positive [6]: 3.1%
Fold-change of binding to MNK74 compared to control AGS (human nectin-4 on cells): 5 fold
% of Positive [7]: 29.3%
% of Positive [8]: 44.4%
% of Positive [9]: 1%
% of Positive [10]: 10.5%
% of Positive [11]: 4.3%
Kd [12]: 5.09 nM
koff [12]: 0.00423 s⁻¹
kon [12]: 832000 M⁻¹ s⁻¹
% of Positive [13]: 3.9%
B1: TNT-189 (antibody, mouse IgG2a, kappa)
heavy: EVQLVQSGAEVKKPGSSVKVSCKASGGTFSSYAISWVRQAPGQGLEWMGGIIPIFGTANYAQKFQGRVTITADESTSTAYMELSSLRSEDTAVYYCARGYSSSWYEPYYFDYWGQGTLVTVSSAKTTAPSVYPLAPVCGDTTGSSVTLGCLVKGYFPEPVTLTWNSGSLSSGVHTFPAVLQSDLYTLSSSVTVTSSTWPSQSITCNVAHPASSTKVDKKIEPRGPTIKPCPPCKCPAPNLLGGPSVFIFPPKIKDVLMISLSPIVTCVVVDVSEDDPDVQISWFVNNVEVHTAQTQTHREDYNSTLRVVSALPIQHQDWMSGKEFKCKVNNKDLPAPIERTISKPKGSVRAPQVYVLPPPEEEMTKKQVTLTCMVTDFMPEDIYVEWTNNGKTELNYKNTEPVLDSDGSYFMYSKLRVEKKNWVERNSYSCSVVHEGLHNHHTTKSFSRTPGRPQGFGPP
light: DIQLTQSPSSLSASVGDRVTITCRASQGISNYLAWYQQKPGKAPKLLIYAASTLQSGVPSRFSGSGSGTDFTLTISSLQPEDFATYYCQQSYSTPYTFGQGTKLEIKRADAAPTVSIFPPSSEQLTSGGASVVCFLNNFYPKDINVKWKIDGSERQNGVLNSWTDQDSKDSTYSMSSTLTLTKDEYERHNSYTCEATHKTSTSPIVKSFNRNEC

Kd [14]: 8 nM
Kd [15]: 10 nM
Kd [16]: 40 nM
Kd [17]: 8.69 nM
Kd [18]: 9.88 nM
binding result [19]: binds
Kd [20]: 40.5 nM
B2: TNT-212 (antibody, human IgG1, kappa)
heavy: not shown
light: DIQMTQSPSSVSASVGDRVTITCRASQGISGWLAWYQQKPGKAPKFLIYAASTLQSGVPSRFSGSGSGTDFTLTISSLQPEDFATYYCQQANSFPPTFGGGTKVEIKRTVAAPSVFIFPPSDEQLKSGTASVVCLLNNFYPREAKVQWKVDNALQSGNSQESVTEQDSKDSTYSLSSTLTLSKADYEKHKVYACEVTHQGLSSPVTKSFNRGEC
notes: also called TNT-154
